The source of these data is the supplement of paper PMC10567573.

B1: TNXB (parent)
chain: LLQRELMVPGTRHSAVLRDLRSGT
B2: SNAP91 (parent)
chain: FAQPMMRPPFGAAAVPGTQLSPSP
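Also: lentivirally expressed fusions sorted by FACS into six bins by GFP to DsRed ratio, PSI derived from sequencing read proportions per bin multiplied by bin number.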

The first data set covers variants of B1. Briefly: protein stability index of a GFP-peptide fusion (GPS, HEK-293T) (PSI 1-6); higher = more stable. To be noted: c terminus: a fixed tail appended.
As to LLQLELMVPGTRHSAVLRDLRSGT [R4L], the protein stability index turned out to be 2.76.
Consider LLQTELMVPGTRHSAVLRDLRSGT [R4T], for which the protein stability index was determined as 2.23.
On the same count and under the same terms, next, LLQNELMVPGTRHSAVLRDLRSGT [R4N]: 2.86.
Same read-out and setting: in the case of LLQMELMVPGTRHSAVLRDLRSGT [R4M] it was 2.37.
Regarding LLQGELMVPGTRHSAVLRDLRSGT [R4G], the protein stability index stood at 2.43.
On the same count and under the same terms, next, LLQAELMVPGTRHSAVLRDLRSGT [R4A]: 2.19.
Still for that read-out and setting: in the case of LLQCELMVPGTRHSAVLRDLRSGT [R4C] it was 2.49; in that of LLQWELMVPGTRHSAVLRDLRSGT [R4W], 1.49.
Same read-out and setting: next, LLQKELMVPGTRHSAVLRDLRSGT [R4K]: 2.46; LLQFELMVPGTRHSAVLRDLRSGT [R4F]: 1.72.
For the variant LLQVELMVPGTRHSAVLRDLRSGT [R4V], the protein stability index was 1.81.
LLQDELMVPGTRHSAVLRDLRSGT [R4D]: the protein stability index worked out at 3.44.
Same read-out and setting: next, LLQSELMVPGTRHSAVLRDLRSGT [R4S]: 2.42.
Still for that read-out and setting: in the case of LLQIELMVPGTRHSAVLRDLRSGT [R4I] it was 2.3; in that of LLQHELMVPGTRHSAVLRDLRSGT [R4H], 2.73; in that of LLQQELMVPGTRHSAVLRDLRSGT [R4Q], 2.46.
LLQEELMVPGTRHSAVLRDLRSGT [R4E]: the protein stability index is 2.65.
On the same count and under the same terms, next, LLQYELMVPGTRHSAVLRDLRSGT [R4Y]: 2.37; LLQPELMVPGTRHSAVLRDLRSGT [R4P]: 2.77.
Same read-out and setting: next, LLARELMVPGTRHSAVLRDLRSGT [Q3A]: 2.27.
On the same count and under the same terms, next, LLIRELMVPGTRHSAVLRDLRSGT [Q3I]: 1.72.
As for LLWRELMVPGTRHSAVLRDLRSGT [Q3W], the protein stability index worked out at 2.15.
LLERELMVPGTRHSAVLRDLRSGT [Q3E]: the protein stability index was 3.52.
Same read-out and setting: in the case of LLSRELMVPGTRHSAVLRDLRSGT [Q3S] it was 2.61; in that of LLTRELMVPGTRHSAVLRDLRSGT [Q3T], 2.17; in that of LLPRELMVPGTRHSAVLRDLRSGT [Q3P], 2.88.
On the same count and under the same terms, next, LLCRELMVPGTRHSAVLRDLRSGT [Q3C]: 1.93.
On the same count and under the same terms, in the case of LLDRELMVPGTRHSAVLRDLRSGT [Q3D] it was 3.4; in that of LLGRELMVPGTRHSAVLRDLRSGT [Q3G], 2.74; in that of LLVRELMVPGTRHSAVLRDLRSGT [Q3V], 1.58.
In the case of LLYRELMVPGTRHSAVLRDLRSGT [Q3Y], the protein stability index came out at 1.72.
With LLMRELMVPGTRHSAVLRDLRSGT [Q3M], the protein stability index was 2.16.
Still for that read-out and setting: next, LLNRELMVPGTRHSAVLRDLRSGT [Q3N]: 2.38; LLFRELMVPGTRHSAVLRDLRSGT [Q3F]: 2.59.
Same read-out and setting: next, LLLRELMVPGTRHSAVLRDLRSGT [Q3L]: 1.73; LLHRELMVPGTRHSAVLRDLRSGT [Q3H]: 2.49.
On the same count and under the same terms, next, LLRRELMVPGTRHSAVLRDLRSGT [Q3R]: 2.49; LLKRELMVPGTRHSAVLRDLRSGT [Q3K]: 2.7; TLQRELMVPGTRHSAVLRDLRSGT [L1T]: 3.02.
Consider DLQRELMVPGTRHSAVLRDLRSGT [L1D], for which the protein stability index worked out at 2.71.
Still for that read-out and setting: in the case of CLQRELMVPGTRHSAVLRDLRSGT [L1C] it was 2.38.
For FLQRELMVPGTRHSAVLRDLRSGT [L1F], the protein stability index amounted to 2.41.
The same measure, in the same setting: in the case of KLQRELMVPGTRHSAVLRDLRSGT [L1K] it was 2.87; in that of QLQRELMVPGTRHSAVLRDLRSGT [L1Q], 3.22.
On the same count and under the same terms, next, RLQRELMVPGTRHSAVLRDLRSGT [L1R]: 3.04.
Still for that read-out and setting: next, GLQRELMVPGTRHSAVLRDLRSGT [L1G]: 2.89; ELQRELMVPGTRHSAVLRDLRSGT [L1E]: 3.08.
With NLQRELMVPGTRHSAVLRDLRSGT [L1N], the protein stability index is 3.54.
The same measure, in the same setting: next, ILQRELMVPGTRHSAVLRDLRSGT [L1I]: 2.47; HLQRELMVPGTRHSAVLRDLRSGT [L1H]: 2.98; MLQRELMVPGTRHSAVLRDLRSGT [L1M]: 2.73.
The same measure, in the same setting: in the case of YLQRELMVPGTRHSAVLRDLRSGT [L1Y] it was 2.3.
The same measure, in the same setting: in the case of WLQRELMVPGTRHSAVLRDLRSGT [L1W] it was 1.61.
With VLQRELMVPGTRHSAVLRDLRSGT [L1V], the protein stability index was found to be 2.47.
On the same count and under the same terms, in the case of PLQRELMVPGTRHSAVLRDLRSGT [L1P] it was 2.53; in that of ALQRELMVPGTRHSAVLRDLRSGT [L1A], 2.85; in that of SLQRELMVPGTRHSAVLRDLRSGT [L1S], 3.2.
On the same count and under the same terms, next, LDQRELMVPGTRHSAVLRDLRSGT [L2D]: 3.23; LWQRELMVPGTRHSAVLRDLRSGT [L2W]: 2.12.
Same read-out and setting: next, LKQRELMVPGTRHSAVLRDLRSGT [L2K]: 3.33; LSQRELMVPGTRHSAVLRDLRSGT [L2S]: 3.4.
As to LGQRELMVPGTRHSAVLRDLRSGT [L2G], the protein stability index came to 3.42.
On the same count and under the same terms, in the case of LHQRELMVPGTRHSAVLRDLRSGT [L2H] it was 3.43; in that of LYQRELMVPGTRHSAVLRDLRSGT [L2Y], 2.71.
As to LMQRELMVPGTRHSAVLRDLRSGT [L2M], the protein stability index was 2.28.
LQQRELMVPGTRHSAVLRDLRSGT [L2Q]: the protein stability index came to 3.54.
LRQRELMVPGTRHSAVLRDLRSGT [L2R]: the protein stability index was 3.92.
With LNQRELMVPGTRHSAVLRDLRSGT [L2N], the protein stability index came out at 3.34.
With LFQRELMVPGTRHSAVLRDLRSGT [L2F], the protein stability index is 2.15.
In the case of LIQRELMVPGTRHSAVLRDLRSGT [L2I], the protein stability index was found to be 2.79.
Still for that read-out and setting: next, LEQRELMVPGTRHSAVLRDLRSGT [L2E]: 3.95; LTQRELMVPGTRHSAVLRDLRSGT [L2T]: 3.29.
Still for that read-out and setting: in the case of LPQRELMVPGTRHSAVLRDLRSGT [L2P] it was 3.71; in that of LAQRELMVPGTRHSAVLRDLRSGT [L2A], 3.36; in that of LCQRELMVPGTRHSAVLRDLRSGT [L2C], 2.13.
As to LVQRELMVPGTRHSAVLRDLRSGT [L2V], the protein stability index came to 2.48.

Variants of B2 are the subject of the next data set. The data set is described as above. As to conditions: c terminus: a fixed tail appended.
Turning to FAQPMMRPPFGAAAVPGTQLSPSF [P24F], the protein stability index worked out at 2.65.
On to FAQPMMRPPFGAAAVPGTQLSPSK [P24K], for which the protein stability index was 3.83.
Take FAQPMMRPPFGAAAVPGTQLSPSS [P24S]: the protein stability index came out at 3.1.
Still for that read-out and setting: next, FAQPMMRPPFGAAAVPGTQLSPSC [P24C]: 2.93; FAQPMMRPPFGAAAVPGTQLSPSV [P24V]: 2.51; FAQPMMRPPFGAAAVPGTQLSPSN [P24N]: 2.58.
Still for that read-out and setting: in the case of FAQPMMRPPFGAAAVPGTQLSPSM [P24M] it was 3.23; in that of FAQPMMRPPFGAAAVPGTQLSPSQ [P24Q], 3.32.
Same read-out and setting: in the case of FAQPMMRPPFGAAAVPGTQLSPSI [P24I] it was 3.2; in that of FAQPMMRPPFGAAAVPGTQLSPST [P24T], 3.25.
For the variant FAQPMMRPPFGAAAVPGTQLSPSH [P24H], the protein stability index amounted to 2.96.
Still for that read-out and setting: in the case of FAQPMMRPPFGAAAVPGTQLSPSD [P24D] it was 3.4.
Take FAQPMMRPPFGAAAVPGTQLSPSE [P24E]: the protein stability index worked out at 3.45.
The same measure, in the same setting: next, FAQPMMRPPFGAAAVPGTQLSPSG [P24G]: 3.22.
For FAQPMMRPPFGAAAVPGTQLSPSR [P24R], the protein stability index was found to be 2.87.
On the same count and under the same terms, next, FAQPMMRPPFGAAAVPGTQLSPSL [P24L]: 2.35; FAQPMMRPPFGAAAVPGTQLSPSY [P24Y]: 2.86.
Take FAQPMMRPPFGAAAVPGTQLSPSW [P24W]: the protein stability index amounted to 2.77.
